Values joined by “and” are separate entries in the source; they are usually repeats but may differ in a detail not shown here. Equal entries are not always repeated. Where two headings read alike, the source gives them in different places.
B1: E. coli PriA helicase (enzyme, UniProt P17888 1-732, looked up)
chain: MPVAHVALPVPLPRTFDYLLPEGMTVKAGCRVRVPFGKQQERIGIVVSVSDASELPLNELKAVVEVLDSEPVFTHSVWRLLLWAADYYHHPIGDVLFHALPILLRQGRPAANAPMWYWFATEQGQAVDLNSLKRSPKQQQALAALRQGKIWRDQVATLEFNDAALQALRKKGLCDLASETPEFSDWRTNYAVSGERLRLNTEQATAVGAIHSAADTFSAWLLAGVTGSGKTEVYLSVLENVLAQGKQALVMVPEIGLTPQTIARFRERFNAPVEVLHSGLNDSERLSAWLKAKNGEAAIVIGTRSALFTPFKNLGVIVIDEEHDSSYKQQEGWRYHARDLAVYRAHSEQIPIILGSATPALETLCNVQQKKYRLLRLTRRAGNARPAIQHVLDLKGQKVQAGLAPALITRMRQHLQADNQVILFLNRRGFAPALLCHDCGWIAECPRCDHYYTLHQAQHHLRCHHCDSQRPVPRQCPSCGSTHLVPVGLGTEQLEQTLAPLFPGVPISRIDRDTTSRKGALEQQLAEVHRGGARILIGTQMLAKGHHFPDVTLVALLDVDGALFSADFRSAERFAQLYTQVAGRAGRAGKQGEVVLQTHHPEHPLLQTLLYKGYDAFAEQALAERRMMQLPPWTSHVIVRAEDHNNQHAPLFLQQLRNLILSSPLADEKLWVLGPVPALAPKRGGRWRWQILLQHPSRVRLQHIINGTLALINTIPDSRKVKWVLDVDPIEG

Assays:
E. coli PriA helicase [1] = biological target: B1; assay: ITC
[2] = biological target: T1, χ subunit of DNA polymerase III holoenzyme (E. coli, UniProt P28905 1-147); assay: ITC
T1 sequence (P28905 whole entry): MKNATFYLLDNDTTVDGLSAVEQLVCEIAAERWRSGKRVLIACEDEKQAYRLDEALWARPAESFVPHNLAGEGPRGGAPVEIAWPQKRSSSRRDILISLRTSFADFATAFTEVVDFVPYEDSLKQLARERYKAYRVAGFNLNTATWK

E. coli PriA helicase [3] = biological target: B1; assay: ITC; remark: listed apart in the source
[4] = biological target: T1, χ subunit of DNA polymerase III …; assay: ITC; remark: listed apart in the source
E. coli PriA helicase [5] = biological target: B1; assay: ITC; remark: listed apart in the source
E. coli PriA helicase [6] = biological target: B1; assay: ITC; remark: listed apart in the source
[7] = biological target: T1, χ subunit of DNA polymerase III …; assay: ITC; remark: listed apart in the source
E. coli PriA helicase [8] = biological target: B1; assay: ITC; remark: listed apart in the source
[9] = biological target: T1, χ subunit of DNA polymerase III …; assay: ITC; remark: listed apart in the source
E. coli PriA helicase [10] = biological target: B1; assay: ITC; remark: listed apart in the source
[11] = biological target: E. coli single stranded DNA binding (SSB) protein (E. coli, UniProt P0AGE0 1-178); assay: AUC
Chain of E. coli single stranded DNA binding (SSB) protein (P0AGE0 whole entry): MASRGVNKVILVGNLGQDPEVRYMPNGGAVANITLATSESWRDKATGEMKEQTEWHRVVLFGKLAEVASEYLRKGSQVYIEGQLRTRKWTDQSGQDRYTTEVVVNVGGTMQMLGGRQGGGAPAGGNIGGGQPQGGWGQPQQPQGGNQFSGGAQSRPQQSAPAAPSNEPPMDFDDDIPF

Binder | Ka (E. coli PriA helicase [1]) [M⁻¹] | dH (E. coli PriA helicase [1]) [kcal/mol] | stoichiometry N (E. coli PriA helicase [1]) | Ka [2] [M⁻¹] | dH [2] [kcal/mol] | stoichiometry N [2] | Ka (E. coli PriA helicase [3]) [M⁻¹] | dH (E. coli PriA helicase [3]) [kcal/mol] | stoichiometry N (E. coli PriA helicase [3]) | Ka [4] [M⁻¹] | dH [4] [kcal/mol] | stoichiometry N [4] | Ka (E. coli PriA helicase [5]) [M⁻¹] | dH (E. coli PriA helicase [5]) [kcal/mol] | stoichiometry N (E. coli PriA helicase [5]) | other results
PSNEPPMDFDDDIPF [P15, synthetic peptide of the last 15 amino acids of the SSB C-terminus] | 360000 | -14 ± 0.6 | 0.92 ± 0.03 | 1.5e+06 | -9.5 ± 0.3 | 0.91 ± 0.02 | 2.7e+06 | -20.7 ± 0.8 | 0.9 ± 0.02 | 800000 | -7.7 ± 0.4 | 0.88 ± 0.04 | 1.6e+06 | -7 ± 0.5 | 1.03 ± 0.06 | –
MDFDDDIPF [P9, synthetic peptide of the last 9 amino acids of the SSB C-terminus] | 180000 | -17.3 ± 0.6 | 0.81 ± 0.12 | 1.6e+06 | -7.9 ± 0.4 | 1 ± 0.1 | – | – | – | 800000 | -8.2 ± 0.4 | 0.92 ± 0.04 | 2e+06 | -6.7 ± 0.3 | 0.89 ± 0.05 | –
WMDFDDDIPF [WP9, modified P9 peptide containing a Trp residue on the N terminal side] | 230000 | -13 ± 1.3 | 1.1 ± 0.1 | 1.2e+06 | -8 ± 0.3 | 1.02 ± 0.03 | 1.6e+06 | -14.5 ± 0.5 | 0.95 ± 0.02 | – | – | – | – | – | – | Ka (E. coli PriA helicase [6]): 410000 M⁻¹ and 404000 M⁻¹; dH (E. coli PriA helicase [6]): -13.9 kcal/mol and -14.4 kcal/mol; stoichiometry N (E. coli PriA helicase [6]): 0.91 ± 0.11; Ka [7]: 300000 M⁻¹; dH [7]: -9.2 ± 0.4 kcal/mol; stoichiometry N [7]: 0.96 ± 0.03; Ka (E. coli PriA helicase [8]): 225000 M⁻¹; dH (E. coli PriA helicase [8]): -13.7 ± 0.2 kcal/mol; stoichiometry N (E. coli PriA helicase [8]): 1.01 ± 0.1; Ka [9]: 1.6e+06 M⁻¹; Ka (E. coli PriA helicase [10]): 3.4e+06 M⁻¹; dH (E. coli PriA helicase [10]): -17.6 ± 0.2 kcal/mol
B1 | – | – | – | – | – | – | – | – | – | – | – | – | – | – | – | stoichiometry N [11]: ≥ 3

From paper PMC2861366 (Biochemistry, 2010)
